Test results taken from patent US20230192860A1 (Bristol-Myers Squibb, published 2023).
Substitutions are numbered along the chain they refer to. Numbers in names are those of the source.

B1: P1-061015 (antibody, V domains shown)
VH: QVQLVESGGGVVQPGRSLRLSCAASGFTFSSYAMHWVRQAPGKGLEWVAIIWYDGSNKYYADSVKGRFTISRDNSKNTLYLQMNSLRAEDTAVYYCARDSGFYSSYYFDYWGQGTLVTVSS
VL: EIVLTQSPATLSLSPGERATLSCRASQSVSSSYLAWYQQKPGQAPRLLIYDASNRATGIPARFSGSGSGTDFTLTISSLEPEDFATYYCQQYNSYPYTFGQGTKLEIK
notes: captured on a Protein A chip; also called parental antibody
B2: P1-068748 (antibody, V domains shown)
VH: QVQLVESGGGVVQPGRSLRLSCAASGFTFSHHAMHWVRQAPGKGLEWVAIIWYDGSNDDYADSVKGRFTISRDNSKNTLYLQMNSLRAEDTAVYYCARDSGFYDSYYFDYWGQGTLVTVSS
VL: B1 VL
notes: captured on a Protein A chip
B3: P1-077865 (P1-068748 H31S) (antibody, V domains shown)
VH: B2 VH with H31S
VL: B1 VL
notes: Reversion mutant of P1-068748 (Kabat names); captured on a Protein A chip
B4: P1-077867 (P1-068748 H32Y) (antibody, V domains shown)
VH: B2 VH with H32Y
VL: B1 VL
notes: as for B3
B5: P1-077869 (P1-068748 D57K) (antibody, V domains shown)
VH: B2 VH with D58K
VL: B1 VL
notes: as for B3
B6: P1-077873 (P1-068748 D100S) (antibody, V domains shown)
VH: B2 VH with D104S
VL: B1 VL
notes: as for B3
B7: P1-077875 (P1-068748 H31S H32Y) (antibody, V domains shown)
VH: B2 VH with H31S, H32Y
VL: B1 VL
notes: as for B3
B8: P1-077877 (P1-068748 H32Y D57K) (antibody, V domains shown)
VH: B2 VH with H32Y, D58K
VL: B1 VL
notes: as for B3
B9: P1-077881 (P1-068748 D58Y D100S) (antibody, V domains shown)
VH: B2 VH with D59Y, D104S
VL: B1 VL
notes: as for B3
B10: P1-077883 (P1-068748 H31S D57K) (antibody, V domains shown)
VH: B2 VH with H31S, D58K
VL: B1 VL
notes: as for B3
B11: P1-077887 (P1-068748 H31S D100S) (antibody, V domains shown)
VH: B2 VH with H31S, D104S
VL: B1 VL
notes: as for B3
B12: P1-077889 (P1-068748 H32Y D58Y) (antibody, V domains shown)
VH: B2 VH with H32Y, D59Y
VL: B1 VL
notes: as for B3
B13: P1-077891 (P1-068748 H32Y D100S) (antibody, V domains shown)
VH: B2 VH with H32Y, D104S
VL: B1 VL
notes: as for B3
B14: P1-077893 (P1-068748 D57K D100S) (antibody, V domains shown)
VH: B2 VH with D58K, D104S
VL: B1 VL
notes: Reversion mutant of P1-068748 (Kabat names); the antibody was captured on a Protein A chip, so an Fc was present
B15: P1-077855 (P1-068744 E31S E59Y) (antibody, V domains shown)
VH: B2 VH with H31S, H32Y, I50H, D58K, D59Y, D104E, Y110E
VL: B1 VL
B16: P1-077857 (P1-068744 E31S E100S) (antibody, V domains shown)
VH: B2 VH with H31S, H32Y, I50H, D58K, D59Y, Y60E, D104S, Y110E
VL: B1 VL
B17: P1-077859 (P1-068744 H50I E100S) (antibody, V domains shown)
VH: B2 VH with H31E, H32Y, D58K, D59Y, Y60E, D104S, Y110E
VL: B1 VL
B18: P1-077861 (P1-068744 H50I E102Y) (antibody, V domains shown)
VH: B2 VH with H31E, H32Y, D58K, D59Y, Y60E, D104E
VL: B1 VL
B19: P1-077863 (P1-068744 E59Y E102Y) (antibody, V domains shown)
VH: B2 VH with H31E, H32Y, I50H, D58K, D59Y, D104E
VL: B1 VL

The binders below were run against T1, monovalent hVISTA-ECD with polyhistidine tail (SEQ ID NO: 325) (human, UniProt Q9H7M9 33-193) (assay: SPR, mAb captured on Protein A chip, hVISTA injected, PBST pH 6.0, 37 C).
T1 construct: also called hVISTA-ECD 6-His tag; human VISTA
T1 sequence (Q9H7M9 other isoform, or with tags, fused parts or gaps limits assumed): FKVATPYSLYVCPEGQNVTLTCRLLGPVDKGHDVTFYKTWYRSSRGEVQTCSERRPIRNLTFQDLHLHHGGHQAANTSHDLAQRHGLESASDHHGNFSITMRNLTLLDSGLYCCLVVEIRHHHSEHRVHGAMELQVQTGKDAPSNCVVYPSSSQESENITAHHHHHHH
For B1, the Kd was 1.9 nM, the koff was 0.0016 s⁻¹ and the kon was 830000 M⁻¹ s⁻¹. B2 was tested, and the Kd was 11 nM, the koff was 0.0035 s⁻¹ and the kon was 310000 M⁻¹ s⁻¹. B3 showed a Kd of 5.2 nM, a koff of 0.0028 s⁻¹ and a kon of 540000 M⁻¹ s⁻¹. With B4 the Kd was 2.2 nM, the koff was 0.0029 s⁻¹ and the kon was 1.3e+06 M⁻¹ s⁻¹. Work on B5 yielded a Kd of 15 nM, a koff of 0.0026 s⁻¹ and a kon of 170000 M⁻¹ s⁻¹. For B6, the Kd was 0.71 nM, the koff was 0.0012 s⁻¹ and the kon was 1.8e+06 M⁻¹ s⁻¹. With B7 the Kd was 0.94 nM, the koff was 0.0018 s⁻¹ and the kon was 1.9e+06 M⁻¹ s⁻¹. B8 was tested, and the Kd was 2.2 nM, the koff was 0.0019 s⁻¹ and the kon was 840000 M⁻¹ s⁻¹. For B9, the Kd was 53 nM, the koff was 0.0034 s⁻¹ and the kon was 62000 M⁻¹ s⁻¹. In the case of B10, the Kd is reported as 6.7 nM, the koff is reported as 0.002 s⁻¹ and the kon is reported as 310000 M⁻¹ s⁻¹. B11 was tested, and the Kd was 0.52 nM, the koff was 0.0011 s⁻¹ and the kon was 2.1e+06 M⁻¹ s⁻¹. B12 showed a Kd of 130 nM, a koff of 0.022 s⁻¹ and a kon of 180000 M⁻¹ s⁻¹. B13 showed a Kd of 0.36 nM, a koff of 0.00099 s⁻¹ and a kon of 2.7e+06 M⁻¹ s⁻¹. B14 gave a Kd of 0.43 nM, a koff of 0.00058 s⁻¹ and a kon of 1.4e+06 M⁻¹ s⁻¹.

These binders were tested against T2, hVISTA-ECD 6-His tag (human, UniProt Q9H7M9 33-193) (assay: SPR 37 C, Ab on Protein A, pH 6.0).
T2 construct: also called monovalent hVISTA-ECD; human VISTA
T2 sequence (Q9H7M9 other isoform, or with tags, fused parts or gaps limits assumed): as above
With B15 the Kd was 36 nM, the koff was 0.0077 s⁻¹ and the kon was 210000 M⁻¹ s⁻¹. Binder B16 has a Kd of 120 nM, a koff of 0.097 s⁻¹ and a kon of 820000 M⁻¹ s⁻¹. B17 showed a Kd of 2.3 nM, a koff of 0.0032 s⁻¹ and a kon of 1.4e+06 M⁻¹ s⁻¹. Work on B18 yielded a Kd of 2.6 nM, a koff of 0.0023 s⁻¹ and a kon of 870000 M⁻¹ s⁻¹. B19 gave a Kd of 130 nM, a koff of 0.017 s⁻¹ and a kon of 140000 M⁻¹ s⁻¹.

Each binder was assayed against T2, hVISTA-ECD 6-His tag (assay: SPR 37 C, Ab on Protein A, pH 7.4).
Work on B15 yielded a Kd of 5200 nM, a koff of 0.061 s⁻¹ and a kon of 12000 M⁻¹ s⁻¹. B16 gave a Kd of 520 nM, a koff of 0.16 s⁻¹ and a kon of 300000 M⁻¹ s⁻¹. B17 gave a Kd of 9.5 nM, a koff of 0.0044 s⁻¹ and a kon of 460000 M⁻¹ s⁻¹. B18 showed a Kd of 26 nM, a koff of 0.0027 s⁻¹ and a kon of 100000 M⁻¹ s⁻¹. Work on B19 yielded a Kd of 1100 nM, a koff of 0.055 s⁻¹ and a kon of 63000 M⁻¹ s⁻¹.

These binders were tested against T1, monovalent hVISTA-ECD with … (assay: SPR, mAb captured on Protein A chip, hVISTA injected, PBST pH 7.4, 37 C).
B1 showed a Kd of 6.4 nM, a koff of 0.0022 s⁻¹ and a kon of 340000 M⁻¹ s⁻¹. Binder B2 has a Kd of 600 nM, a koff of 0.032 s⁻¹ and a kon of 54000 M⁻¹ s⁻¹. B3 gave a Kd of 410 nM, a koff of 0.028 s⁻¹ and a kon of 69000 M⁻¹ s⁻¹. B4 showed a Kd of 230 nM, a koff of 0.026 s⁻¹ and a kon of 120000 M⁻¹ s⁻¹. In the case of B5, the Kd is reported as 980 nM, the koff is reported as 0.027 s⁻¹ and the kon is reported as 28000 M⁻¹ s⁻¹. B6 showed a Kd of 3.6 nM, a koff of 0.003 s⁻¹ and a kon of 850000 M⁻¹ s⁻¹. In the case of B7, the Kd is reported as 130 nM, the koff is reported as 0.021 s⁻¹ and the kon is reported as 160000 M⁻¹ s⁻¹. For B8, the Kd was 270 nM, the koff was 0.024 s⁻¹ and the kon was 88000 M⁻¹ s⁻¹. B9 showed a Kd of 22 nM, a koff of 0.0036 s⁻¹ and a kon of 160000 M⁻¹ s⁻¹. Work on B10 yielded a Kd of 510 nM, a koff of 0.035 s⁻¹ and a kon of 68000 M⁻¹ s⁻¹. In the case of B11, the Kd is reported as 3 nM, the koff is reported as 0.0027 s⁻¹ and the kon is reported as 910000 M⁻¹ s⁻¹. With B12 the Kd was 2400 nM, the koff was 0.073 s⁻¹ and the kon was 31000 M⁻¹ s⁻¹. With B13 the Kd was 2.1 nM, the koff was 0.0025 s⁻¹ and the kon was 1.2e+06 M⁻¹ s⁻¹. In the case of B14, the Kd is reported as 4.7 nM, the koff is reported as 0.0019 s⁻¹ and the kon is reported as 400000 M⁻¹ s⁻¹.
